From article PMC2885054 come the findings set out here.

Assay [1] concerns the target V5-tagged BUNV L protein expressed from a transfected cDNA construct (Bunyamwera virus) (UniProt P20470). The assay can be described thus: co-IP; as a2, but with a viral transcript co-expressed: N from pT7riboBUNS (also full-length S antigenome RNA), or additionally pT7riboBUNM(+) or minigenome pT7riboBUNMREN(-); bands quantified by phosphorimager and normalised to expression.

Assay [2] deals with Bunyamwera virus (BUNV) nucleoprotein (N) (Bunyamwera virus) (UniProt P16495). Described as above.

Regarding “Bunyamwera virus (BUNV) nucleoprotein (N) (from UniProt P16495 1-233) (natural protein)”, in assay [1], the fold more co-precipitated than in cells transfected with pTM1-BUNS worked out at 5 fold. Substance “V5-tagged BUNV L protein expressed from a transfected cDNA construct (from UniProt P20470 1-2238)” gave a fold more co-precipitated than in cells transfected with pTM1-BUNS in assay [2] of 8 fold.
